In article doi:10.1101/2024.09.24.614577 (bioRxiv, 2024):

Molecular target: the molecule itself
Experiment: cryo-EM structure

B1: human GPR155 (residues 1-870), construct without the eGFP tag (receptor, UniProt Q7Z3F1 1-870, looked up)
chain: MNSNLPAENLTIAVNMTKTLPTAVTHGFNSTNDPPSMSITRLFPALLECFGIVLCGYIAGRANVITSTQAKGLGNFVSRFALPALLFKNMVVLNFSNVDWSFLYSILIAKASVFFIVCVLTLLVASPDSRFSKAGLFPIFATQSNDFALGYPIVEALYQTTYPEYLQYIYLVAPISLMMLNPIGFIFCEIQKWKDTQNASQNKIKIVGLGLLRVLQNPIVFMVFIGIAFNFILDRKVPVYVENFLDGLGNSFSGSALFYLGLTMVGKIKRLKKSAFVVLILLITAKLLVLPLLCREMVELLDKGDSVVNHTSLSNYAFLYGVFPVAPGVAIFATQFNMEVEIITSGMVISTFVSAPIMYVSAWLLTFPTMDPKPLAYAIQNVSFDISIVSLISLIWSLAILLLSKKYKQLPHMLTTNLLIAQSIVCAGMMIWNFVKEKNFVGQILVFVLLYSSLYSTYLWTGLLAISLFLLKKRERVQIPVGIIIISGWGIPALLVGVLLITGKHNGDSIDSAFFYGKEQMITTAVTLFCSILIAGISLMCMNQTAQAGSYEGFDQSQSHKVVEPGNTAFEESPAPVNEPELFTSSIPETSCCSCSMGNGELHCPSIEPIANTSTSEPVIPSFEKNNHCVSRCNSQSCILAQEEEQYLQSGDQQLTRHVLLCLLLIIGLFANLSSCLWWLFNQEPGRLYVELQFFCAVFNFGQGFISFGIFGLDKHLIILPFKRRLEFLWNNKDTAENRDSPVSEEIKMTCQQFIHYHRDLCIRNIVKERRCGAKTSAGTFCGCDLVSWLIEVGLASDRGEAVIYGDRLVQGGVIQHITNEYEFRDEYLFYRFLQKSPEQSPPAINANTLQQERYKEIEHSSPPSHSPKT
  stoichiometry N: 2
